PMC7246905, “Exploring the Enzymatic and Antibacterial Activities of Novel Mycobacteriophage Lysin B Enzymes” (International Journal of Molecular Sciences, 2020)
Read-outs that look alike come from different tables or passages of the source.

What was measured:
Conditions in all cases: 20 mM Tris-HCl, 100 mM NaCl, 0.1% Triton X-100, pH 8, 37 °C
LysB-Obama12 (LysB-His6) = assay: p-nitrophenol release at […] nm, Michaelis-Menten; assay type: biochemical, Mycobacterium phage Obama12
purified protein [1] = substrate: CCCCCCCCCCCCCCCC(=O)Oc1ccc([N+](=O)[O-])cc1; assay: purified protein; assay type: biochemical, Mycobacterium phage Saal
purified protein [2] = substrate: CCCCCCCCCCCCCC(=O)Oc1ccc([N+](=O)[O-])cc1; assay: purified protein; assay type: biochemical, Mycobacterium phage Saal
purified protein [3] = substrate: CCCCCCCCCCCC(=O)Oc1ccc([N+](=O)[O-])cc1; assay: purified protein; assay type: biochemical, Mycobacterium phage Saal
purified protein [4] = substrate: CCCC(=O)Oc1ccc([N+](=O)[O-])cc1; assay: purified protein; assay type: biochemical, Mycobacterium phage Saal
purified protein [5] = substrate: CCCCCCCC(=O)Oc1ccc([N+](=O)[O-])cc1; assay: purified protein; assay type: biochemical, Mycobacterium phage Saal
purified protein [6] = substrate: CCCCCCCCCCCCCCCC(=O)Oc1ccc([N+](=O)[O-])cc1; assay: purified protein; assay type: biochemical, Fromanvirus D29
purified protein [7] = substrate: CCCCCCCCCCCCCC(=O)Oc1ccc([N+](=O)[O-])cc1; assay: purified protein; assay type: biochemical, Fromanvirus D29
purified protein [8] = substrate: CCCCCCCCCCCC(=O)Oc1ccc([N+](=O)[O-])cc1; assay: purified protein; assay type: biochemical, Fromanvirus D29
purified protein [9] = substrate: CCCC(=O)Oc1ccc([N+](=O)[O-])cc1; assay: purified protein; assay type: biochemical, Fromanvirus D29
purified protein [10] = substrate: CCCCCCCC(=O)Oc1ccc([N+](=O)[O-])cc1; assay: purified protein; assay type: biochemical, Fromanvirus D29
purified protein [11] = substrate: CCCCCCCCCCCCCCCC(=O)Oc1ccc([N+](=O)[O-])cc1; assay: purified protein; assay type: biochemical, Mycobacterium phage Omega
purified protein [12] = substrate: CCCCCCCCCCCCCC(=O)Oc1ccc([N+](=O)[O-])cc1; assay: purified protein; assay type: biochemical, Mycobacterium phage Omega
purified protein [13] = substrate: CCCCCCCCCCCC(=O)Oc1ccc([N+](=O)[O-])cc1; assay: purified protein; assay type: biochemical, Mycobacterium phage Omega
purified protein [14] = substrate: CCCC(=O)Oc1ccc([N+](=O)[O-])cc1; assay: purified protein; assay type: biochemical, Mycobacterium phage Omega
purified protein [15] = substrate: CCCCCCCC(=O)Oc1ccc([N+](=O)[O-])cc1; assay: purified protein; assay type: biochemical, Mycobacterium phage Omega

CCCC(=O)Oc1ccc([N+](=O)[O-])cc1 [p-nitrophenyl butyrate]
Km (LysB-Obama12 (LysB-His6); read-out: pNPB (C4)): 1270 ± 60 µM

CCCCCCCCCCCCCC(=O)Oc1ccc([N+](=O)[O-])cc1 [p-nitrophenyl myristate]
Km (LysB-Obama12 (LysB-His6); read-out: pNPM (C14)): 1270 ± 86.4 µM

CCCCCCCCCCCC(=O)Oc1ccc([N+](=O)[O-])cc1 [p-nitrophenyl laurate]
Km (LysB-Obama12 (LysB-His6); read-out: pNPL (C12)): 3000 ± 20.1 µM

CCCCCCCCCCCCCCCC(=O)Oc1ccc([N+](=O)[O-])cc1 [p-nitrophenyl palmitate]
Km (LysB-Obama12 (LysB-His6); read-out: pNPP (C16)): 800 ± 22.1 µM

CCCCCCCC(=O)Oc1ccc([N+](=O)[O-])cc1 [p-nitrophenyl octanoate]
Km (LysB-Obama12 (LysB-His6); read-out: pNPO (C8)): 2670 ± 46.5 µM

B1: LysB-Saal (LysB-His6) (Mycobacterium phage Saal) (protein)
chain: MRIDGQYVGLGLGDSSDEIRKIKAFMRRKFASYAGDLADTPLYDEAMTAAVAEMQARYSAAGQLRAGLYIPGIVGAETKYVMGYLPRPVVDTRPVLITVCGTGVPWWIGPDADTARAVEDKYLWQPIGYPAAPFPMGKSIAAAITETHNQANRWRERIETHGAALAGYSQGAVVVSELWMNHIAPEDGSLHWMKPHIEKAVTWGNPNRELGHVWADHGGSPRAPSNTQGVSSNGMRDTPPWWRDYAHQGDLYACTEPGDTQEVRNAIWQIVRDLDLFTGPDSLLAQVVELVQAPLPEAIAITKALLDAGMFFAKRTGPHVDYNVQPAIDYLRT
Km (purified protein [1]): 2833.32 ± 40.824 µM | kcat/Km (purified protein [1]): 19700 ± 2420 M⁻¹ s⁻¹ | Km (purified protein [2]): 956.7 ± 12.93 µM | kcat/Km (purified protein [2]): 54000 ± 3520 M⁻¹ s⁻¹ | Km (purified protein [3]): 1476.39 ± 33.184 µM | kcat/Km (purified protein [3]): 71800 ± 3350 M⁻¹ s⁻¹ | Km (purified protein [4]): 4172.12 ± 20.104 µM | kcat/Km (purified protein [4]): 44700 ± 7630 M⁻¹ s⁻¹ | Km (purified protein [5]): 1519.25 ± 38.596 µM | kcat/Km (purified protein [5]): 20300 ± 230 M⁻¹ s⁻¹

B2: LysB-D29 (LysB-His6) (Fromanvirus D29) (protein)
chain: MSKPWLFTVHGTGQPDPLGPGLPADTARDVLDIYRWQPIGNYPAAAFPMWPSVEKGVAELILQIELKLDADPYADFAMAGYSQGAIVVGQVLKHHILPPTGRLHRFLHRLKKVIFWGNPMRQKGFAHSDEWIHPVAAPDTLGILEDRLENLEQYGFEVRDYAHDGDMYASIKEDDLHEYEVAIGRIVMKASGFIGGRDSVVAQLIELGQRPITEGIALAGAIIDALTFFARSRMGDKWPHLYNRYPAVEFLRQI
Km (purified protein [6]): 37.7 ± 7.134 µM | Vmax (purified protein [6]): 2.73 µmol/min/mg | kcat (purified protein [6]): 0.242 ± 0.0168 s⁻¹ | kcat/Km (purified protein [6]): 6330 ± 783 M⁻¹ s⁻¹ | Km (purified protein [7]): 24.08 ± 0.505 µM | Vmax (purified protein [7]): 3 µmol/min/mg | kcat (purified protein [7]): 0.294 ± 0.0159 s⁻¹ | kcat/Km (purified protein [7]): 12200 ± 512 M⁻¹ s⁻¹ | Km (purified protein [8]): 19.6 ± 3.094 µM | Vmax (purified protein [8]): 7.55 µmol/min/mg | kcat (purified protein [8]): 0.738 ± 0.026 s⁻¹ | kcat/Km (purified protein [8]): 37700 ± 6030 M⁻¹ s⁻¹ | Km (purified protein [9]): 422.6 ± 29.4 µM | Vmax (purified protein [9]): 122 µmol/min/mg | kcat (purified protein [9]): 11.9 ± 0.187 s⁻¹ | kcat/Km (purified protein [9]): 28300 ± 6130 M⁻¹ s⁻¹ | Km (purified protein [10]): 42.3 ± 0.445 µM | Vmax (purified protein [10]): 9.85 µmol/min/mg | kcat (purified protein [10]): 0.961 ± 0.213 s⁻¹ | kcat/Km (purified protein [10]): 22700 ± 723 M⁻¹ s⁻¹

B3: LysB-Omega (LysB-His6) (Mycobacterium phage Omega) (protein)
chain: MSLWPEIRAMLNGEFYVPAGTIITANGTGVPDGAGPGFGADLARELERVAEGMWIWKWINYPAAVMPMRPSINTLRLALKEMIRTTPGKIVLSAYSQSAVAFAYVWRDDILNPDGELHDRLDDIVAVILYGNPVRAPGIAYGNELGGQSAPGKLNGHVTGGIAGPDCLRPEECVHPVTGRRIVLDFANAGDLYAAAPVGAEPWVKETEVGHNETLIYEAVMDFNGRDILAFAKEIAQILTMPLSQVVPLVQAIINGLSFLVQGPKAPHWTYTIGPAVDYLVRTGNELRKN
Km (purified protein [11]): 24.4 ± 3.116 µM | Vmax (purified protein [11]): 1.45 µmol/min/mg | kcat (purified protein [11]): 0.152 ± 0.0184 s⁻¹ | kcat/Km (purified protein [11]): 6230 ± 4950 M⁻¹ s⁻¹ | Km (purified protein [12]): 98.72 ± 5.292 µM | Vmax (purified protein [12]): 22.3 µmol/min/mg | kcat (purified protein [12]): 2.35 ± 0.0785 s⁻¹ | kcat/Km (purified protein [12]): 23800 ± 783 M⁻¹ s⁻¹ | Km (purified protein [13]): 280.8 ± 3.26 µM | Vmax (purified protein [13]): 79.8 µmol/min/mg | kcat (purified protein [13]): 8.4 ± 0.339 s⁻¹ | kcat/Km (purified protein [13]): 40200 ± 2260 M⁻¹ s⁻¹ | Km (purified protein [14]): 618.8 ± 24.98 µM | Vmax (purified protein [14]): 112 µmol/min/mg | kcat (purified protein [14]): 11.7 ± 0.313 s⁻¹ | kcat/Km (purified protein [14]): 19000 ± 733 M⁻¹ s⁻¹ | Km (purified protein [15]): 193.3 ± 2.258 µM | Vmax (purified protein [15]): 15.7 µmol/min/mg | kcat (purified protein [15]): 7.54 ± 0.165 s⁻¹ | kcat/Km (purified protein [15]): 39000 ± 6070 M⁻¹ s⁻¹
